Measurements as given in PMC10251477 (2023).
Residue numbers refer to the chain shown, from its start. Numbers in names are those of the source. Bridge positions count the residues as written; N and C are the ends. Square brackets hold non-standard residues; d marks the D form. Primed or numbered codes have the meaning given here. Ends that are not written are not given here. 5/6FAM = 5/6-carboxyfluorescein; S5 = C=CCCC[C@](C)(N)C(=O)O; PEG3′ = not defined here

Assays:
[1] = target: T1, MBP-tagged R1441C RocCOR LRRK2; test: FP
T1 chain: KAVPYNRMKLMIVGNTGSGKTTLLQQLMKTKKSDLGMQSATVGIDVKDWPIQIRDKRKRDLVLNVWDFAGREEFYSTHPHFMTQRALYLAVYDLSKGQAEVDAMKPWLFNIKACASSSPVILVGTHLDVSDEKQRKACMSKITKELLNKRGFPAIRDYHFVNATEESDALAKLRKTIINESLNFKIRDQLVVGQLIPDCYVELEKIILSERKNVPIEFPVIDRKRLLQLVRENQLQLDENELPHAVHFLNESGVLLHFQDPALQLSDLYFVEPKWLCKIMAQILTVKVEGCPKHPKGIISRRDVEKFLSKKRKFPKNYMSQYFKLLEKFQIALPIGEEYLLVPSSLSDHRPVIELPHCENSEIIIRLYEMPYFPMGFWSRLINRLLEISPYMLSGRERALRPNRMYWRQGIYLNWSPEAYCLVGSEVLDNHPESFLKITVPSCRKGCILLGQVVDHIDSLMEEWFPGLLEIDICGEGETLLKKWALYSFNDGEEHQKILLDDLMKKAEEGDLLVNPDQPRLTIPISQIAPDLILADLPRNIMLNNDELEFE

[2] = target: T2, MBP-tagged RocCOR LRRK2 (wild type); test: FP
T2 chain: T1 chain with C114R

**Q.** What does the source list for {FAM-PEG3′}-KGEGE[S5]LLK[S5]WALYSFNDGEKH[S5]KKL[S5]KL (staple 6-10, 23-27) [FAM ECOR (doubly stapled Elongated COR peptide)]?
**A.** Kd [1]: 24 nM; Kd [2]: 45 nM

**Q.** What does the source list for {5/6FAM-PEG3′}-KGEGE[S5]LLK[S5]WGLYSFNDGEKH[S5]KKL[S5]KL (staple 6-10, 23-27) [FAM ECOR A12G (doubly stapled Elongated COR peptide with A12G)]?
**A.** Kd [1]: 32 nM; Kd [2]: 57 nM
